Measurements as given in article PMC3361065 (Biochemistry, 2012).

Columns and labels:
Test in all cases: EMSA
[1] = target: T1, yeast mitochondrial RNA polymerase (scMtRNAP) WT (UniProt P13433 1-1351)
T1 sequence: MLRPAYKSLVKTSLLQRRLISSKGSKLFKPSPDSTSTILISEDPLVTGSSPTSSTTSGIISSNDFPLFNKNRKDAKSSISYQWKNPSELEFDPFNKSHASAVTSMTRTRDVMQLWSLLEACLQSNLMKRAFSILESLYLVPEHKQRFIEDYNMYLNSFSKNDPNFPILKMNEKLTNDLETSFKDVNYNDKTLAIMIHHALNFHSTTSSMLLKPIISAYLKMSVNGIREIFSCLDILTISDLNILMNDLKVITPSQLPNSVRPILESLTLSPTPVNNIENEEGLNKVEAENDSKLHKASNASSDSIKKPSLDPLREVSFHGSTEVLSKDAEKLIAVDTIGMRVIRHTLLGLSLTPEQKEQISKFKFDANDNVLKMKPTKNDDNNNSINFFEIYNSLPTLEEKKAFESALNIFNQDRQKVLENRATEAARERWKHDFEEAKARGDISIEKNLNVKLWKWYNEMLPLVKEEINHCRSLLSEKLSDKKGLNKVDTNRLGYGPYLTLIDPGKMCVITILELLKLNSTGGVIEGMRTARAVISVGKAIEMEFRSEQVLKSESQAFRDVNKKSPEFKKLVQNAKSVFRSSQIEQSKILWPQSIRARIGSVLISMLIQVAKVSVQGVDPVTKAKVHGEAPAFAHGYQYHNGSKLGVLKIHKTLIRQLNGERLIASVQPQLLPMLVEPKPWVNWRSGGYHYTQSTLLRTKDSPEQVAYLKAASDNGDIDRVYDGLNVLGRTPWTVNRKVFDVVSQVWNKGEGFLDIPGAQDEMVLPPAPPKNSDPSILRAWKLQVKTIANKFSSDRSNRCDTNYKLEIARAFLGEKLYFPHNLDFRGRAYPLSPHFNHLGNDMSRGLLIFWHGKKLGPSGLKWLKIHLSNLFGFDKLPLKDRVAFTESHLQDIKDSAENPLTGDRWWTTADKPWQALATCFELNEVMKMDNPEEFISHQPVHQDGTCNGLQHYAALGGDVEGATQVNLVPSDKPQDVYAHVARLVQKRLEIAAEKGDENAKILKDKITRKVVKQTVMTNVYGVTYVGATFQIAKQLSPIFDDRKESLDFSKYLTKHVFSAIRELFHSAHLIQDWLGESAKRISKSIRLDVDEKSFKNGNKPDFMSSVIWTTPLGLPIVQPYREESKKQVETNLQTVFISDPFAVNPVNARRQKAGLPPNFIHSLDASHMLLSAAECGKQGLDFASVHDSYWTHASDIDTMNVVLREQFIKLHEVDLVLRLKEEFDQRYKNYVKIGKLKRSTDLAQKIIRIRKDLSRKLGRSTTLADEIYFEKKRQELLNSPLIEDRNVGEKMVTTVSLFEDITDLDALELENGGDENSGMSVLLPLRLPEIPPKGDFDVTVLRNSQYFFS

[2] = target: scMtRNAP ΔNGS;MTF1 (yeast mitochondrial transcription factor) (Saccharomyces cerevisiae?;Saccharomyces …, UniProt P13433;P14908 1-641+645-1351;1-341, internal_change|)
Chain of scMtRNAP ΔNGS;MTF1 (yeast mitochondrial transcription factor) (P14908 whole entry, stated change not applied, one chain of several): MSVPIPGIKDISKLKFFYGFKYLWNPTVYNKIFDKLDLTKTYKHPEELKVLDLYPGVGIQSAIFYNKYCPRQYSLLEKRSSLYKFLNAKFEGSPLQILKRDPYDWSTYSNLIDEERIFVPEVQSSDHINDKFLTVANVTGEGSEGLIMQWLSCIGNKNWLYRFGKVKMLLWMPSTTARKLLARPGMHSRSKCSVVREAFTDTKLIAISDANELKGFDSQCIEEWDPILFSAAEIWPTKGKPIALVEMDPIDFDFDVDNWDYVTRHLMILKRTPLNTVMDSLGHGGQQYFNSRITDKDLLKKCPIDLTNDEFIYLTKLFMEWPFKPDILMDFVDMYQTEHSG

[3] = target: yeast mitochondrial RNA polymerase (scMtRNAP) WT;MTF1 (yeast mitochondrial transcription factor) (Saccharomyces cerevisiae?;Saccharomyces …, UniProt P13433;P14908 1-1351;1-341, |)
[4] = target: scMtRNAP ΔHNG;MTF1 (yeast mitochondrial transcription factor) (Saccharomyces cerevisiae?;Saccharomyces …, UniProt P13433;P14908 1-640+644-1351;1-341, internal_change|)
[5] = target: T2, scMtRNAP ΔHNG (UniProt P13433 1-640+644-1351, internal_change)
T2 sequence: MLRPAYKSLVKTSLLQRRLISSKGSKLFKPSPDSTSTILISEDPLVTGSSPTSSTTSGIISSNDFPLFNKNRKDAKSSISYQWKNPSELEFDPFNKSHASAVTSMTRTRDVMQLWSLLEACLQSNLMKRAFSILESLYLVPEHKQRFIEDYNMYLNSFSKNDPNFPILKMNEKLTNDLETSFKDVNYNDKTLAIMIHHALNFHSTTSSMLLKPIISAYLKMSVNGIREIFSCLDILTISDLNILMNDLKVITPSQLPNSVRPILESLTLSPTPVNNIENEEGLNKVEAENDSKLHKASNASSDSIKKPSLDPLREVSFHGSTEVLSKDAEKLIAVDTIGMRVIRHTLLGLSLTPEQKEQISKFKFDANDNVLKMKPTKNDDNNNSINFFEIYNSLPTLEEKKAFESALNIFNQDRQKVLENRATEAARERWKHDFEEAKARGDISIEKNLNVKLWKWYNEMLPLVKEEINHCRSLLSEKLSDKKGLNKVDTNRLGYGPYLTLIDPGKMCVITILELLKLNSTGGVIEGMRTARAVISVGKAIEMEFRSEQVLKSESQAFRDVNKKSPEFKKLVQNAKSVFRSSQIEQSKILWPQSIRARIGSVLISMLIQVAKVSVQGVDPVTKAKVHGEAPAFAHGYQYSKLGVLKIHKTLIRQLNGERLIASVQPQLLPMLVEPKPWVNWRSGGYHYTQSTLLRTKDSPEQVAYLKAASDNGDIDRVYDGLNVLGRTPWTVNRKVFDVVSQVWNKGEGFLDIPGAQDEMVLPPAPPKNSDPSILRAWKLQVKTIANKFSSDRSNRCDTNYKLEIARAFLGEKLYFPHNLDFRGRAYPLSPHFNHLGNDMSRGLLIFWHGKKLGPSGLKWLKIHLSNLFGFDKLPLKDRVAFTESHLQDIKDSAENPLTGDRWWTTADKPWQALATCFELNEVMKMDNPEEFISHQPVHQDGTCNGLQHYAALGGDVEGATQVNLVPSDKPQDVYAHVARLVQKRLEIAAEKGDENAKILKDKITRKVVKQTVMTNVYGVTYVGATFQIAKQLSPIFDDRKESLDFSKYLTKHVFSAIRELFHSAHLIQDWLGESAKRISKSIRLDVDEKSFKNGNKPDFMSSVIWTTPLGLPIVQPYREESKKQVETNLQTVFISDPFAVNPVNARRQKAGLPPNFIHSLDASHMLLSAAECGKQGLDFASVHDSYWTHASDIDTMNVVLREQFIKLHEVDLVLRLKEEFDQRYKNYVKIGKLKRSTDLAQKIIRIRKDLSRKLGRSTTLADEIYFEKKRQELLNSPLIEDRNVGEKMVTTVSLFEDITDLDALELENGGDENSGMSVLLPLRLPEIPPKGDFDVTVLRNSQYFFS

B1: 33 bp Bubble (pre-melted) promoter (dsDNA)
DNA 1: CGCGTAAAACTATTCTTTATTACTTATATCGCG
DNA 2: CGCGATATGCAGCTTAAAGAATAGTTTTACGCG
Kd [1]: 4300 nM | Kd [2]: 430 nM | Kd [3]: 160 nM | Kd [4]: 340 nM | Kd [5]: 5300 nM
